{"source": "patent US20250034222A1", "about": "(MONASH UNIVERSITY, published 2025)", "target": "the molecule itself", "experiment": "SEC"}
{"protein": "Wild-type IL-38 (residues 3-152), untagged after TEV cleavage of the N-terminal His10 tag (ligand, Uncut protein was removed for the Peak A pool; also called IL-38 (WT); WT (D51A) IL-38) SLPMARYYIIKYADQKALYTRDGQLLVGDPVADNCCAEKICILPNRGLARTKVPIFLGIQGGSRCLACVETEEGPSLQLEDVNIEELYKGGEEATRFTFFQSSSGSAFRLEAAAWPGWFLCGPAEPQQPVQLTKESEPSARTKFYFEQSW", "values": [{"measurement": "binding result", "result": "binds"}]}
